Measurements taken from patent publication US10702592B2, “Peptides and combination of peptides for use in immunotherapy against NHL and other cancers” (Immatics Biotechnologies GmbH, priority 2016, dated 2020).

target: HLA-A*02:01 (Homo sapiens, UniProt P04439, D140Y/D185E/D98H/E176V/E277Q/G131W/G231S/I119V/I121R/I166T/I218V/L300P/L318F/N151K/N90K/P208A/P217A/Q86G/Q94H/R138H/R169H/T345S); test: MHC binding assay (UV-ligand exchange, beta2m ELISA); details: binding to HLA-A*02:01, UV-ligand exchange
Description: Candidate peptides for T cell based therapies according to the present invention were further tested for their MHC binding capacity (affinity). The individual peptide-MHC complexes were produced by UV-ligand exchange, where a UV-sensitive peptide is cleaved upon UV-irradiation, and exchanged with the peptide of interest as analyzed. Only peptide candidates that can effectively bind and stabilize the peptide-receptive MHC molecules prevent dissociation of the MHC complexes. To determine the yield of the exchange reaction, an ELISA was performed based on the detection of the light chain (β2m) of stabilized MHC complexes. The assay was performed as generally described in Rodenko et al. (Rodenko et al., 2006).
96 well MAXISorp plates (NUNC) were coated over night with 2 ug/ml streptavidin in PBS at room temperature, washed 4× and blocked for 1 h at 37° C. in 2% BSA containing blocking buffer. Refolded HLA-A*02:01/MLA-001 monomers served as standards, covering the range of 15-500 ng/ml. Peptide-MHC monomers of the UV-exchange reaction were diluted 100 fold in blocking buffer. Samples were incubated for 1 h at 37° C., washed four times, incubated with 2 ug/ml HRP conjugated anti-β2m for 1 h at 37° C., washed again and detected with TMB solution that is stopped with […]. Absorption was measured at 450 nm. Candidate peptides that show a high exchange yield (preferably higher than 50%, most preferred higher than 75%) are generally preferred for a generation and production of antibodies or fragments thereof, and/or T cell receptors or fragments thereof, as they show sufficient avidity to the MHC molecules and prevent dissociation of the MHC complexes.

Row | Substance | Peptide exchange (MHC class I binding score, peptide exchange yield)
1 | 4 (TLLGFFLAKV; listed as Homo sapiens) [compound 4] | “++” (≥20% = ++)
2 | 6 (TLITLPLLFL; listed as Homo sapiens) [compound 6] | “+++” (≥50 = +++)
3 | 10 (FLLVGTQIDL; listed as Homo sapiens) [compound 10] | “+++” (≥50 = +++)
4 | 11 (GLDTVVALL; listed as Homo sapiens) [compound 11] | “+++” (≥50 = +++)
5 | 14 (LLSDPTPGA; listed as Homo sapiens) [compound 14] | “++” (≥20% = ++)
6 | 15 (IIIEDLLEA; listed as Homo sapiens) [compound 15] | “++++” (≥75% = ++++)
7 | 16 (TLIAAILYL; listed as Homo sapiens) [compound 16] | “++” (≥20% = ++)
8 | 18 (KLTDQPPLV; listed as Homo sapiens) [compound 18] | “+++” (≥50 = +++)
9 | 23 (ALVEDIINL; listed as Homo sapiens) [compound 23] | “++++” (≥75% = ++++)
10 | 31 (KLYDEESLL; listed as Homo sapiens) [compound 31] | “++++” (≥75% = ++++)
11 | 32 (VLNEDELPSV; listed as Homo sapiens) [compound 32] | “+++” (≥50 = +++)
12 | 34 (LLWEDGVTEA; listed as Homo sapiens) [compound 34] | “+++” (≥50 = +++)
13 | 38 (YLTAEILELAGN; listed as Homo sapiens) [compound 38] | “++” (≥20% = ++)
14 | 39 (QLLPQGIVPAL; listed as Homo sapiens) [compound 39] | “+++” (≥50 = +++)
15 | 45 (FILDDSALYL; listed as Homo sapiens) [compound 45] | “+++” (≥50 = +++)
16 | 48 (KILDEDLYI; listed as Homo sapiens) [compound 48] | “+++” (≥50 = +++)
17 | 49 (TILGDPQILL; listed as Homo sapiens) [compound 49] | “++++” (≥75% = ++++)
18 | 50 (LLLDGLIYL; listed as Homo sapiens) [compound 50] | “+++” (≥50 = +++)
19 | 54 (DIFDAMFSV; listed as Homo sapiens) [compound 54] | “+” (≥10% = +)
20 | 55 (ILVEVDLVQA; listed as Homo sapiens) [compound 55] | “++++” (≥75% = ++++)
21 | 56 (GLQDLLFSL; listed as Homo sapiens) [compound 56] | “+++” (≥50 = +++)

Row | Substance | Peptide exchange (MHC class I binding score, peptide exchange yield)
22 | 58 (QLAPFLPQL; listed as Homo sapiens) [compound 58] | “+++” (≥50 = +++)
23 | 63 (ALIEEAYGL; listed as Homo sapiens) [compound 63] | “+++” (≥50 = +++)
24 | 64 (FLVEVSNDV; listed as Homo sapiens) [compound 64] | “++++” (≥75% = ++++)
25 | 65 (NLTDVSPDL; listed as Homo sapiens) [compound 65] | “+++” (≥50 = +++)
26 | 69 (TLLAFPLLL; listed as Homo sapiens) [compound 69] | “++++” (≥75% = ++++)
27 | 70 (VLIEILQKA; listed as Homo sapiens) [compound 70] | “++++” (≥75% = ++++)
28 | 71 (VLLDYVGNVQL; listed as Homo sapiens) [compound 71] | “++++” (≥75% = ++++)
29 | 72 (TLQEETAVYL; listed as Homo sapiens) [compound 72] | “++” (≥20% = ++)
30 | 75 (AALKYIPSV; listed as Homo sapiens) [compound 75] | “+++” (≥50 = +++)
31 | 76 (ALADLVPVDVVV; listed as Homo sapiens) [compound 76] | “++++” (≥75% = ++++)
32 | 77 (ALLDVSNNYGI; listed as Homo sapiens) [compound 77] | “++++” (≥75% = ++++)
33 | 78 (AMEEAVAQV; listed as Homo sapiens) [compound 78] | “+++” (≥50 = +++)
34 | 79 (AMKEEKEQL; listed as Homo sapiens) [compound 79] | “++” (≥20% = ++)
35 | 80 (YLFDEIDQA; listed as Homo sapiens) [compound 80] | “+++” (≥50 = +++)
36 | 81 (FIFSYITAV; listed as Homo sapiens) [compound 81] | “++” (≥20% = ++)
37 | 82 (FLIDGSSSV; listed as Homo sapiens) [compound 82] | “+++” (≥50 = +++)
38 | 83 (FLMDDNMSNTL; listed as Homo sapiens) [compound 83] | “+++” (≥50 = +++)
39 | 84 (FLQELQLEHA; listed as Homo sapiens) [compound 84] | “+++” (≥50 = +++)
40 | 85 (GLAPAEVVVATVA; listed as Homo sapiens) [compound 85] | “+++” (≥50 = +++)
41 | 86 (GLATIRAYL; listed as Homo sapiens) [compound 86] | “+++” (≥50 = +++)
42 | 87 (GLFARIIMI; listed as Homo sapiens) [compound 87] | “++” (≥20% = ++)

Row | Substance | Peptide exchange (MHC class I binding score, peptide exchange yield)
43 | 88 (GLFDNRSGLPEA; listed as Homo sapiens) [compound 88] | “+++” (≥50 = +++)
44 | 89 (GLTALHVAV; listed as Homo sapiens) [compound 89] | “+++” (≥50 = +++)
45 | 90 (HLDEVFLEL; listed as Homo sapiens) [compound 90] | “+++” (≥50 = +++)
46 | 91 (HLSSTTAQV; listed as Homo sapiens) [compound 91] | “++” (≥20% = ++)
47 | 92 (KLLFEIASA; listed as Homo sapiens) [compound 92] | “+++” (≥50 = +++)
48 | 93 (KLLGSLQLL; listed as Homo sapiens) [compound 93] | “++++” (≥75% = ++++)
49 | 94 (LLAGQATTAYF; listed as Homo sapiens) [compound 94] | “+++” (≥50 = +++)
50 | 95 (LLFDLIPVVSV; listed as Homo sapiens) [compound 95] | “+++” (≥50 = +++)
51 | 96 (LLLNENESLFL; listed as Homo sapiens) [compound 96] | “+++” (≥50 = +++)
52 | 97 (LLNFSPGNL; listed as Homo sapiens) [compound 97] | “+” (≥10% = +)
53 | 98 (MLQDGIARL; listed as Homo sapiens) [compound 98] | “+++” (≥50 = +++)
54 | 99 (QLYDGATALFL; listed as Homo sapiens) [compound 99] | “++” (≥20% = ++)
55 | 100 (RLIRTIAAI; listed as Homo sapiens) [compound 100] | “+++” (≥50 = +++)
56 | 101 (SLDQSTWNV; listed as Homo sapiens) [compound 101] | “++++” (≥75% = ++++)
57 | 102 (SLFAAISGMIL; listed as Homo sapiens) [compound 102] | “+++” (≥50 = +++)
58 | 103 (SLQDHLEKV; listed as Homo sapiens) [compound 103] | “+++” (≥50 = +++)
59 | 104 (VLLGLPLLV; listed as Homo sapiens) [compound 104] | “+++” (≥50 = +++)
60 | 105 (VLTPVILQV; listed as Homo sapiens) [compound 105] | “+++” (≥50 = +++)
61 | 106 (VLYELLQYI; listed as Homo sapiens) [compound 106] | “++++” (≥75% = ++++)
62 | 107 (VQAVSIPEV; listed as Homo sapiens) [compound 107] | “+++” (≥50 = +++)
